From the DeepSol protein solubility set

Test: soluble on expression in E. coli; label from the status in PepcDB or PDB records

Sequence	soluble on expression in E. coli
MSLQVFGVSRSGYYNWVQHEPSDRKQSDERLKLEIKVAHIRTRETYGTRRLQTELAENGIIVGRDRLARLRKELRLRCKQKRKFRATTNSNHNLPVAPNLLNQTFAPTAPNQVWVADLTYVATQEGWLYLAGIKDVYTCEIVGYAMGERMTKELTGKALFMALRSQRPPAGLIHHSDRGSQYCAYDYRVIQEQFGLKTSMSRKGNCYDNAPMESFWGTLKNESLSHYRFNNRDEAISVIREYIEIFYNRQRRHSRLGNISPATFREKYHQMAAEGHHHHHH	not soluble
MDRNEVRHAWDSVSETYAERRDPTGSDAALLEDLLERLPEAPTVLDVGCGDGARTLANLPPRSVGLDFSRAGLDLAAETVPDSRLVQGDMGSLPVTTDSVDAITAYHAVFHVQRDQHPEVYREFARVLRPGGTVLMTLPSGQFETVRRGWMGGSMFFSAPGRRATLDQLADAGFTETETVTATDPLGSDSEFVFATLADALEHHHHHH	soluble
QRHADLIAARAGRPVTITAVCARDRSKNRDADLSGYAWETDAVALAQRADIDVFVEVMGGSEGAARASTEAALAAGKDVVTANKALLAHHGQALAEMAEAAGLAIRFEAAVAGGIPVIKALTEGLAGNQMRRVMGVMNGTCNYILTR	not soluble
GPGSMAVAAAAAAQTVAPRPPMQIGRADIAQMVASNPHVPTFSLPMNRQLEREFRTFRPVLIIAPLSTLPHWASEFQRFSRRHTAAAVSPCPGGVDAAERFTVYVLNGPRSERESRMGELLAHVERLTQQPPTPGGASGATPATPVVVIPHDMLTKPLRGALRQIRRVDWQVVAIDEAQRIKCARSFLFKKVCGLHSVSRRVLTGHTVADQHDGALPCSCAFRHRTRSSRVSCLSSWIAHCSPQVGRARWRIASCASSCAAVLIDFRCRSSCGVRGAS	soluble
MKWKVLQLKTQEIKVNNLAKSSLHQPGSLVLRNRIRNNQTISNHQKVYITNLHKDKLKLNNLLRLMKSTNRHMPFRNLVLATGQELALLHNKRKRRKTLPLALFYSHLILL	not soluble
MNGAIFPWREDSRFQLLIDGPAFFPRMIAAIDRAEQQVDLELYLVEAGACADAVVRALVEAGRRGVIVRCLFDDFGSKAFDAGLRKQLTDAGVILRFYNPIHWRRGVRNFYRDHRKILVVDKALAVVGGTGVTDEFWEPDKDVSQWHEVMVEIAGPLVLDWQALFDRQFHANARRFAWRPKQNFGLDHLPKAPVTGEGLGRVAYADSRQHRDILQSLVRTLHSGQKRIWLATPYFLPTWKVRRALRSAAARGVDVRLLLTGPRTDHPSVRYAGHRYYPRLLRAGVKVFEYQPCFLHLKMVLIDDWVSIGSCNFDHWNLHFNLEANLEAHDPGLTRDVAASFEKDFALSTEITLEDWKARPLWRRVKQRLWGWIDRLVVNLLDQRN	not soluble
MGSDKIHHHHHHMGVIQKIKNLVTRSKYVMTTQSLTNITDHPKIAISKLEYDRITTNLKYYKSDWDSVLYLNTDGETKKRDLNHLPIARTAAKKIASLVFNEQAEIKVDDDAANEFISETLKNDRFNKNFERYLESCLALGGLAMRPYVDGDKVRVAFVQAPVFLPLQSNTQDVSSAAVVIKSVKTINGKEVYYTLIEFHEWQSSDDYVISNELYRSDDKAKVGSRVPLSEVYKDLKDEAKVTDVTRPIFTYLKTPGMNNKDINSPLGLSIFDNAKTTIDFINTTYDEFMWEVKMGQRRVAVPESLTALTVRTADGDVVPRPRFESDQNVYIRMGGRDLDSSAIQDLTTPIRADDYIKAINEGLSLFEMQIGVSAGLFSFDGKSMKTATEIVSENSDTYQMRNSIVTLVEQSLKELVISIFEIAKAYDLYQSEVPSMDNISISLDDGVFTDRDAELDYWIKVVNAGFGTREMAIQKVLNVTEEKAQEIAAEINTGIVDEINQQRTDTHLYGE	not soluble
EEIHLIAVNELLYVKAEDKYLSLYKVHGATTHEYLLRSSLKELLAQLDPNQFWQIHRSIVVNVGKIDKVTRDFGGKMWVHIDRLQLPVSRALQHLFKVS	not soluble
MSLKTITFFKRVLASAALVSVCGFACATNNGKQFIHNDTMEGGKLVCREIYAMNDAASGILNPVKMYKYSYDTDQQKTVKSTYAWNIFKNTWETESRTVISRYETETSVEYSVWNKEKGSFDLSKKYIYITDNNNQLIAQYAYKMNSRTNQWILEKDALTPIYENIYATTREGHHHHHH	soluble
